The target of experiment [1] is fluorescently labeled duramycin. Nature of the experiment: fluorescence polarisation. For orientation: In fluorescence polarisation assays a small probe gives low polarisation when free and higher when bound to something large.
The target in experiment [2] is MBP-DurN. Nature of the experiment: fluorescence polarisation.
Experiment [3] concerns the target DurN. The experiment is described as follows: crystal structure.
In experiment [4] the target is DurN. Nature of the experiment: crystal structure. The source holds these as a separate data set.
In experiment [5] the target is DurN. The experiment is described as follows: crystal structure. The source holds these as a separate data set.

pKd, pKi: −log10 of the molar value. Like-named read-outs stand apart in the source and are kept apart here.

The term pKi denotes the negative decadic logarithm of the Ki, by convention in mol/L. What is called pKd is −log10 of the Kd, conventionally taken in molar units. As a reminder, the stoichiometry N is a count of units in the complex or per binding partner.

In experiment [1], MBP-DurN K66A (enzyme) gave a pKi of 5.13.
As to 1-Hya15Ser (peptide), the pKi in experiment [2] was 4.99.
The same measure, in the same setting: the same measure for duramycin (peptide): 5.57.
In turn, MBP-DurN (enzyme) showed a pKd in experiment [1] of 6.38.
For the substance DurN (enzyme), the stoichiometry N in experiment [3], in experiment [4] and in experiment [5] was 2 each time.

These data come from article doi:10.1101/358382.
